Measurements: patent US20240034757A1 (OXFORD UNIVERSITY INNOVATION, published 2024)

B1: P1172_IXORI (other)
chain: LHEDEIFTVDYCGTNCTKQSNGSWTTCPGNCSCYHEDGKTDGFCLSTEYTDFTQFPNLTSEEMDAATPRPE

Columns and labels:
CXCL1_HUMAN = target: T1, CXCL1_HUMAN (human, UniProt P09341 35-107); assay: yeast surface display FACS re-test
T1 sequence: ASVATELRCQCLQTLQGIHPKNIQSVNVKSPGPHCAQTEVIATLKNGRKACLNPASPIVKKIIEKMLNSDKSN

CXCL8_HUMAN = target: T2, CXCL8_HUMAN (human, UniProt P10145 28-99); assay: yeast surface display FACS re-test
T2 sequence: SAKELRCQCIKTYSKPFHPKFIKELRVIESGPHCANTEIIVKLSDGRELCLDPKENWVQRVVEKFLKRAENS

CXCL2_HUMAN = target: T3, CXCL2_HUMAN (human, UniProt P19875 35-107); assay: BLI [Cont.]
T3 sequence: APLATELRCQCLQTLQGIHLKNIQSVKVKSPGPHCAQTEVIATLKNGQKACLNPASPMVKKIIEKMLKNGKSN

CXCL6_HUMAN = target: T4, CXCL6_HUMAN (human, UniProt P80162 38-114); assay: BLI [Cont.]
T4 sequence: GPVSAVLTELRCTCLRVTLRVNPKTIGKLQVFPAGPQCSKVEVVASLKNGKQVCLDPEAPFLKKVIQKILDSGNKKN

CXCL3_HUMAN = target: T5, CXCL3_HUMAN (human, UniProt P19876 35-107); assay: BLI [Cont.]
T5 sequence: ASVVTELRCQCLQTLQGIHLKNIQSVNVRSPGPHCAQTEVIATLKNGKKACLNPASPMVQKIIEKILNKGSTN

CXCL10_HUMAN = target: T6, CXCL10_HUMAN (human, UniProt P02778 22-98); assay: BLI
T6 sequence: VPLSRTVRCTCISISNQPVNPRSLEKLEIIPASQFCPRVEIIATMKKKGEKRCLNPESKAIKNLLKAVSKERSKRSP

CXCL14_HUMAN = target: T7, CXCL14_HUMAN (human, UniProt O95715 35-111); assay: BLI
T7 sequence: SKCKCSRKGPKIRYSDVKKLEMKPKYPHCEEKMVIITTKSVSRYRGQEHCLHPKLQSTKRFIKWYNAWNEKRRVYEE

CXCL12_HUMAN = CXCL12_HUMAN (human, UniProt P48061 22-89); assay: BLI
CXCL13_HUMAN = target: T8, CXCL13_HUMAN (human, UniProt O43927 23-109); assay: BLI
T8 sequence: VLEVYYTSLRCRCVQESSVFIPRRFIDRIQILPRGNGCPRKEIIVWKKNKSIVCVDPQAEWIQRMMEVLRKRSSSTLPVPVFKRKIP

CXCL9_HUMAN = target: T9, CXCL9_HUMAN (human, UniProt Q07325 23-125); assay: BLI
T9 sequence: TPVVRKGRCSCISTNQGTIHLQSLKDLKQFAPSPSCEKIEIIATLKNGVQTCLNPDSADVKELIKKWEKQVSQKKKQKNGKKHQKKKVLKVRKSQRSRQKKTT

CXCL11_HUMAN = target: T10, CXCL11_HUMAN (human, UniProt O14625 22-94); assay: BLI
T10 sequence: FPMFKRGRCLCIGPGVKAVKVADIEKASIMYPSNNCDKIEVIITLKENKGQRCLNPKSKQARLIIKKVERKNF

P1156_IXORI = target: T11, P1156_IXORI (Ixodes ricinus, UniProt V5HBW0 29-108); assay: BLI [Cont.) C]
T11 sequence: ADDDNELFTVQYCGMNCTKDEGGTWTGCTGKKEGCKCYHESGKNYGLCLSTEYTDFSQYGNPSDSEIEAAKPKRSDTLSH

P1128_IXORI = target: T12, P1128_IXORI (Ixodes ricinus, UniProt A0A0K8R6B3 19-90); assay: BLI [Cont.]
T12 sequence: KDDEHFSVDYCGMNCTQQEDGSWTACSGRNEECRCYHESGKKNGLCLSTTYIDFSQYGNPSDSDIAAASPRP

P1095_IXORI = target: T13, P1095_IXORI (Ixodes ricinus, UniProt A0A0K8RCE3 24-112); assay: BLI [Cont.]
T13 sequence: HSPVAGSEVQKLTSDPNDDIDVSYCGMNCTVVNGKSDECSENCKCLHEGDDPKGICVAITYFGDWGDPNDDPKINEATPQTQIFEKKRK

P1096_IXORI = target: T14, P1096_IXORI (Ixodes ricinus, UniProt A0A0K8RKE4 24-114); assay: BLI [Cont.]
T14 sequence: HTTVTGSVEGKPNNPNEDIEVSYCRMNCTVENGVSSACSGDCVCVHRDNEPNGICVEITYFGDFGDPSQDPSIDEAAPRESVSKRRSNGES

P1132_IXORI = target: T15, P1132_IXORI (Ixodes ricinus, UniProt V5GZ08 29-106); assay: BLI [Cont.]
T15 sequence: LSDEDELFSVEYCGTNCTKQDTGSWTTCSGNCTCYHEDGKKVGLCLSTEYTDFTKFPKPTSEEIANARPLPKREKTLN

P1134_IXORI = target: T16, P1134_IXORI (Ixodes ricinus, UniProt A0A0K8RAI0 32-135); assay: BLI [Cont.]
T16 sequence: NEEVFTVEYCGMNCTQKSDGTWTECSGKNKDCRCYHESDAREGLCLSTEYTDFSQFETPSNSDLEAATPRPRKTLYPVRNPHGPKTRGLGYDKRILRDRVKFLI

P1174_IXORI = target: T17, P1174_IXORI (Ixodes ricinus, UniProt V5I3C5 28-104); assay: BLI [Cont.]
T17 sequence: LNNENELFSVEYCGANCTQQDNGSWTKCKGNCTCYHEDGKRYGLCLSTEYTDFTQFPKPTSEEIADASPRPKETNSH

P1166_IXORI = target: T18, P1166_IXORI (Ixodes ricinus, UniProt A0A0K8RE99 25-110); assay: BLI [Cont.]
T18 sequence: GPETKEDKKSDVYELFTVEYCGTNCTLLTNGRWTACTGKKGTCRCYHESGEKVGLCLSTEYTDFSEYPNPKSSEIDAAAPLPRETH

P1168_IXORI = target: T19, P1168_IXORI (Ixodes ricinus, UniProt A0A0K8RCU3 25-106); assay: BLI [Cont.]
T19 sequence: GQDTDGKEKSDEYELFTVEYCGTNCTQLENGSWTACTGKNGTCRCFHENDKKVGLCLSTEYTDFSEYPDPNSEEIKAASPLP

P1080_IXORI = P1080_IXORI (Ixodes ricinus, UniProt A0A090XBL6 20-118); assay: BLI [Cont.]
P1172_IXORI = target: B1; assay: BLI [Cont.]
P1162_IXORI = target: T20, P1162_IXORI (Ixodes ricinus, UniProt A0A0K8RDJ1 29-99); assay: BLI [Cont.]
T20 sequence: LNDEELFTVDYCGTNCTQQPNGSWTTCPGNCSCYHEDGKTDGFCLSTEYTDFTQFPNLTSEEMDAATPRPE

P1170_IXORI = target: T21, P1170_IXORI (Ixodes ricinus, UniProt A0A0K8RD51 29-102); assay: BLI [Cont.]
T21 sequence: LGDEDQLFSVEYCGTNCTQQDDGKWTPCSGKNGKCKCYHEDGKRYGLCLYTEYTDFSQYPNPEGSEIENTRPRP

P1142_AMBCA = target: T22, P1142_AMBCA (Amblyomma cajennense, UniProt A0A023FBW4 26-97); assay: BLI [Cont.]
T22 sequence: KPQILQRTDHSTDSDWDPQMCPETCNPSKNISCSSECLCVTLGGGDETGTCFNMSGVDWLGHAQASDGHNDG

P1127_IXORI = target: T23, P1127_IXORI (Ixodes ricinus, UniProt A0A0K8RJ67 29-108); assay: BLI [Cont.]
T23 sequence: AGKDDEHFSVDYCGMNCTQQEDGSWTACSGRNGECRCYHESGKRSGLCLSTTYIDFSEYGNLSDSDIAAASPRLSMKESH

P1229_IXORI = target: T24, P1229_IXORI (Ixodes ricinus, UniProt A0A0K8R4R9 32-108); assay: BLI [Cont.]
T24 sequence: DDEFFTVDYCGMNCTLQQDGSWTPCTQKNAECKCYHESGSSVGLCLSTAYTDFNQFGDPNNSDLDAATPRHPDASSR

Sequence of P1080_IXORI (A0A090XBL6 20-118): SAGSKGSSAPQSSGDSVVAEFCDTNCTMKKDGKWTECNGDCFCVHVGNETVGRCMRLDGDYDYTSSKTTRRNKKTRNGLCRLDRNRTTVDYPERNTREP
Sequence of CXCL12_HUMAN (P48061 22-89 limits assumed): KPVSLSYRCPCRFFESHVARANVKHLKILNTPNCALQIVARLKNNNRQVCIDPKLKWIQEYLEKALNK

B1
26 nM: Kd (CXCL2_HUMAN)
no binding (tested: 300 nM): binding result (CXCL6_HUMAN) | binding result (CXCL3_HUMAN) | binding result (CXCL10_HUMAN) | binding result (CXCL14_HUMAN) | binding result (CXCL12_HUMAN) | binding result (CXCL13_HUMAN) | binding result (CXCL9_HUMAN) | binding result (CXCL11_HUMAN)
41%: % cells over threshold fluorescence (CXCL8_HUMAN)
65%: % cells over threshold fluorescence (CXCL1_HUMAN)

B2: CXCL4_HUMAN (ligand)
chain: EAEEDGDLQCLCVKTTSQVRPRHITSLEVIKAGPHCPTAQLIATLKNGRKICLDLQAPLYKKIIKKLLES
no binding (tested: 300 nM): binding result (P1156_IXORI) | binding result (P1128_IXORI) | binding result (P1095_IXORI) | binding result (P1096_IXORI) | binding result (P1132_IXORI) | binding result (P1134_IXORI) | binding result (P1174_IXORI) | binding result (P1166_IXORI) | binding result (P1168_IXORI) | binding result (P1172_IXORI) | binding result (P1162_IXORI) | binding result (P1170_IXORI) | binding result (P1127_IXORI) | binding result (P1229_IXORI)
381 nM: Kd (P1142_AMBCA)
2310 nM: Kd (P1080_IXORI)
